This note sets out measurements from paper PMC7809356, “Structural characterization of a GNAT family acetyltransferase from Elizabethkingia anophelis bound to acetyl-CoA reveals a new dimeric interface” (Scientific Reports, 2021).

The target of assay [1] is GNAT family acetyltransferase from Elizabethkingia anophelis (Elizabethkingia anophelis). As to the kind of experiment: SEC; preparative HiLoad 26/60 Superdex 75 in 25 mM HEPES, 500 mM NaCl, 5% glycerol, 2 mM DTT, 0.025% azide pH 7.0; calibrated with conalbumin, ovalbumin and ribonuclease A; molecular weights from the elution volume.
Assay [2] has as its target T1, GNAT family acetyltransferase from Elizabethkingia anophelis (BAY10_3400) (Elizabethkingia anophelis, UniProt Z9UBX7MZA9).
T1 construct: full length, non-cleavable N-terminal His6-tag (vector BG1861), expressed in E. coli Rosetta BL21(DE3)R3; all residues modelled except N-terminal Met; monomer and dimer in SEC, crystal from dimer peak
The assay can be described thus: X-ray crystallography, […] A. To be noted: co-crystallised with 5 mM acetyl-CoA, 100 mM Tris/HCl pH 5.5, 2 M ammonium sulfate, 285 K; active site. It is filed as binding.

In assay [1], “GNAT family acetyltransferase from Elizabethkingia anophelis (enzyme)” returned a stoichiometry N of 2. For `CC(=O)SCCNC(=O)CCNC(=O)[C@H](O)C(C)(C)COP(=O)(O)OP(=O)(O)OC[C@H]1O[C@@H](n2cnc3c(N)ncnc32)[C@H](O)[C@@H]1OP(=O)(O)O` [acetyl-CoA], the “X-ray crystallography, 1.85 A” value in assay [2] is reported as “Our structure contained a well-ordered acetyl-CoA molecule bound in the active site”.
